Assay [1] addresses IL-23 M54A (human) (UniProt P29460). As to the kind of experiment: cell-based or functional assay.
The target of assay [2] is IL-23 E112A (human) (UniProt P29460). As to the kind of experiment: cell-based or functional assay.
Assay [3] has as its target IL-23 D118A (human) (UniProt P29460). Nature of the assay: cell-based or functional assay.
Assay [4] deals with wild-type IL-23 (His-tagged p19 / non-tagged p40) (human) (UniProt P29460). As to the kind of experiment: cell-based or functional assay.
Sequence of wild-type IL-23 (His-tagged p19 / non-tagged p40) (human) (chain, as listed by the source limits assumed, chain 1 of 2): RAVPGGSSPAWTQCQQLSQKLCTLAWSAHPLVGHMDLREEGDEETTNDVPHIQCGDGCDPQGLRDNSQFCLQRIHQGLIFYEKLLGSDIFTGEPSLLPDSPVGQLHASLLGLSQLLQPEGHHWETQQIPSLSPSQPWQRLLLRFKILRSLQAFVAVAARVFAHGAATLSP
Sequence of wild-type IL-23 (His-tagged p19 / non-tagged p40) (human) (P29460 23-328 limits assumed, chain 2 of 2): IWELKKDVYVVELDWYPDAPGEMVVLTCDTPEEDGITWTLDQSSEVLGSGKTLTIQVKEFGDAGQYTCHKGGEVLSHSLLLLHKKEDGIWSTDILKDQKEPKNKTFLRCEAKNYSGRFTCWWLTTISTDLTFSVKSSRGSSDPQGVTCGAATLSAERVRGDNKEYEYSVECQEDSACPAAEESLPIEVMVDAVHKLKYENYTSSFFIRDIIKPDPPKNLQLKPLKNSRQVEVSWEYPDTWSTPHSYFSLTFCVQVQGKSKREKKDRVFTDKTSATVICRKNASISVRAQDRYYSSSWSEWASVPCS
In assay [5] the target is IL-23 H53A (human) (UniProt P29460). As to the kind of experiment: cell-based or functional assay.
Sequence of IL-23 H53A (human) (chain, as listed by the source H53A H53A, chain 1 of 2): as the sequence (chain, as listed by the source limits assumed, chain 1 of 2) above, with H34A counted along it
Sequence of IL-23 H53A (human) (P29460 23-328, chain 2 of 2): as the sequence (P29460 23-328 limits assumed, chain 2 of 2) above
In assay [6] the target is IL-23 D55A (human) (UniProt P29460). As to the kind of experiment: cell-based or functional assay.
Sequence of IL-23 D55A (human) (chain, as listed by the source D55A D55A, chain 1 of 2): as the sequence (chain, as listed by the source limits assumed, chain 1 of 2) above, with D36A counted along it
Sequence of IL-23 D55A (human) (P29460 23-328, chain 2 of 2): as the sequence (P29460 23-328 limits assumed, chain 2 of 2) above
Assay [7] concerns the target IL-23 L116A (human) (UniProt P29460). Nature of the assay: cell-based or functional assay.
Assay [8] concerns the target IL-23 alanine shave mutant M10 (human) (UniProt P29460). Nature of the assay: cell-based or functional assay.
Assay [9] deals with wild-type IL-23 (His-tagged p19 / non-tagged p40) (human) (UniProt P29460). Nature of the assay: cell-based or functional assay. The source holds these as a separate data set.
The target in assay [10] is IL-23 alanine shave mutant M7 (human) (UniProt P29460). Nature of the assay: cell-based or functional assay.
Sequence of IL-23 alanine shave mutant M7 (human) (chain, as listed by the source mutant limits assumed, form in doubt, chain 1 of 2): as the sequence (chain, as listed by the source limits assumed, chain 1 of 2) above, with W123A, E124A, T125A, Q126A, Q127A counted along it
Sequence of IL-23 alanine shave mutant M7 (human) (P29460 23-328 limits assumed, change not shown, form in doubt, chain 2 of 2): as the sequence (P29460 23-328 limits assumed, chain 2 of 2) above
For assay [11], the target named is IL-23 alanine shave mutant M9 (human) (UniProt P29460). As to the kind of experiment: cell-based or functional assay.
Sequence of IL-23 alanine shave mutant M9 (human) (chain, as listed by the source mutant limits assumed, form in doubt, chain 1 of 2): as the sequence (chain, as listed by the source limits assumed, chain 1 of 2) above, with L97A, D99A, Q104A counted along it
Sequence of IL-23 alanine shave mutant M9 (human) (P29460 23-328 limits assumed, stated change not applied, form in doubt, chain 2 of 2): as the sequence (P29460 23-328 limits assumed, chain 2 of 2) above
In assay [12] the target is IL-23 M54A (human) (UniProt P29460). Nature of the assay: SPR (Biacore T100), antibody captured by protein A. Background: In SPR one partner is held on a chip, and binding of the other changes the refractive index at the surface.
Sequence of IL-23 M54A (human) (chain, as listed by the source M54A M54A, chain 1 of 2): as the sequence (chain, as listed by the source limits assumed, chain 1 of 2) above, with M35A counted along it
Sequence of IL-23 M54A (human) (P29460 23-328, chain 2 of 2): as the sequence (P29460 23-328 limits assumed, chain 2 of 2) above
The target of assay [13] is IL-23 E112A (human) (UniProt P29460). As to the kind of experiment: SPR (Biacore T100), antibody captured by protein A.
The target of assay [14] is IL-23 alanine shave mutant M10 (human) (UniProt P29460). As to the kind of experiment: SPR (Biacore T100), antibody captured by protein A.
Sequence of IL-23 alanine shave mutant M10 (human) (chain, as listed by the source mutant limits assumed, form in doubt, chain 1 of 2): as the sequence (chain, as listed by the source limits assumed, chain 1 of 2) above, with H34A, M35A, D36A, F144A counted along it
Sequence of IL-23 alanine shave mutant M10 (human) (P29460 23-328 limits assumed, stated change not applied, form in doubt, chain 2 of 2): as the sequence (P29460 23-328 limits assumed, chain 2 of 2) above
The target of assay [15] is IL-23 D118A (human) (UniProt P29460). Nature of the assay: SPR (Biacore T100), antibody captured by protein A.
Sequence of IL-23 D118A (human) (chain, as listed by the source D118A D118A, chain 1 of 2): as the sequence (chain, as listed by the source limits assumed, chain 1 of 2) above, with D99A counted along it
Sequence of IL-23 D118A (human) (P29460 23-328, chain 2 of 2): as the sequence (P29460 23-328 limits assumed, chain 2 of 2) above
In assay [16] the target is IL-23 alanine shave mutant M7 (human) (UniProt P29460). As to the kind of experiment: SPR (Biacore T100), antibody captured by protein A.
Assay [17] addresses IL-23 alanine shave mutant M9 (human) (UniProt P29460). As to the kind of experiment: SPR (Biacore T100), antibody captured by protein A.
The target in assay [18] is IL-23 H53A (human) (UniProt P29460). Nature of the assay: SPR (Biacore T100), antibody captured by protein A.
Assay [19] has as its target IL-23 D55A (human) (UniProt P29460). As to the kind of experiment: SPR (Biacore T100), antibody captured by protein A.
Assay [20] deals with IL-23 L116A (human) (UniProt P29460). As to the kind of experiment: SPR (Biacore T100), antibody captured by protein A.
Sequence of IL-23 L116A (human) (chain, as listed by the source L116A L116A, chain 1 of 2): as the sequence (chain, as listed by the source limits assumed, chain 1 of 2) above, with L97A counted along it
Sequence of IL-23 L116A (human) (P29460 23-328, chain 2 of 2): as the sequence (P29460 23-328 limits assumed, chain 2 of 2) above
The target of assay [21] is IL-23 alanine shave mutant M5 (human) (UniProt P29460). As to the kind of experiment: SPR (Biacore T100), antibody captured by protein A.
Sequence of IL-23 alanine shave mutant M5 (human) (chain, as listed by the source mutant limits assumed, form in doubt, chain 1 of 2): as the sequence (chain, as listed by the source limits assumed, chain 1 of 2) above, with H34A, M35A, E93A, L97A, D99A counted along it
Sequence of IL-23 alanine shave mutant M5 (human) (P29460 23-328 limits assumed, change not shown, form in doubt, chain 2 of 2): as the sequence (P29460 23-328 limits assumed, chain 2 of 2) above
Assay [22] shares this target. As to the kind of experiment: cell-based or functional assay.

Results on two substances are retold here after patent US20180037645A1.

Like-named read-outs stand apart in the source and are kept apart here.

Sequence of IL-23 E112A (human) (chain, as listed by the source E112A E112A, chain 1 of 2): as the sequence (chain, as listed by the source limits assumed, chain 1 of 2) above, with E93A counted along it
Sequence of IL-23 E112A (human) (P29460 23-328, chain 2 of 2): as the sequence (P29460 23-328 limits assumed, chain 2 of 2) above

For Merck's IL-23 p19 mAb (7G10) (antibody), the IC50, pSTAT3 in BaF3/huIL-23Rα/huIL-12Rβ1 transfectants in the assay with IL-23 M54A (human) [1] was 0.27 nM; in the assay with IL-23 E112A (human) [2], more than 3 nM; with IL-23 D118A (human) [3], 0.22 nM; in [4], 0.18 nM; with IL-23 H53A (human) [5] it was 0.19 nM; with IL-23 D55A (human) [6], 0.18 nM. Also, the IC50, pSTAT3 in BaF3/huIL-23Rα/huIL-12Rβ1 transfectants with IL-23 L116A (human) [7] came out at 0.24 nM; in assay [8], 350 pM; in [9] it was 380 pM; in [10] it was 310 pM; in assay [11], 260 pM.
Regarding “STELARA® (ustekinumab, IL-12/IL-23 p40 mAb) (antibody)”, the IC50, pSTAT3 in BaF3/huIL-23Rα/huIL-12Rβ1 transfectants was 81 pM in the assay with IL-23 M54A (human) [1]; 33 pM with IL-23 E112A (human) [2]; 52 pM with IL-23 D118A (human) [3]; 67 pM in assay [4]; 78 pM with IL-23 H53A (human) [5]; 77 pM with IL-23 D55A (human) [6]. Besides, the IC50, pSTAT3 in BaF3/huIL-23Rα/huIL-12Rβ1 transfectants with IL-23 L116A (human) [7] turned out to be 54 pM; in [8], 71 pM; in assay [9], 79 pM; in assay [10] it was 59 pM; in assay [11], 67 pM; in [22], 62 pM. Besides, the ΔΔG was 0.3 kcal/mol with IL-23 M54A (human) [12]; 0.3 kcal/mol in the assay with IL-23 E112A (human) [13]; 0.3 kcal/mol in assay [14]; -0.3 kcal/mol with IL-23 D118A (human) [15]; 0.1 kcal/mol in assay [16]; 0.1 kcal/mol in assay [17]. In addition, the ΔΔG turned out to be 0.3 kcal/mol with IL-23 H53A (human) [18], 0.5 kcal/mol in the assay with IL-23 D55A (human) [19], 0.5 kcal/mol with IL-23 L116A (human) [20] and 0.1 kcal/mol in assay [21].
